Experimental data from PMC6156512.

Assays:
[1] = target: HPV 52 L1 aa 15–503 (human papillomavirus type 52); assay: not stated; purified L1 under reducing conditions (Fig. S4); about ~8 nm in diameter; monomers to pentamer
[2] = target: HPV 52 L1 aa 15–503 (human papillomavirus type 52); assay: cryo-EM structure; purified VLPs at ~3 mg/mL vitrified on Quantifoil holey carbon grids; FEI TF30 at 300 kV; T = 7 particle images boxed manually; pentamers to VLP
[3] = target: HPV 45 L1 aa 1–513 (human papillomavirus type 45); assay: not stated; purified L1 under reducing conditions (Fig. S4); about ~8 nm in diameter; monomers to pentamer
[4] = target: HPV 45 L1 aa 1–513 (human papillomavirus type 45); assay: cryo-EM structure; purified VLPs at ~3 mg/mL vitrified on Quantifoil holey carbon grids; FEI TF30 at 300 kV; T = 7 particle images boxed manually; pentamers to VLP
[5] = target: HPV 33 L1 aa 10–499 (human papillomavirus type 33) (UniProt P06416); assay: not stated; purified L1 under reducing conditions (Fig. S4); about ~8 nm in diameter; monomers to pentamer
[6] = target: HPV 33 L1 aa 10–499 (human papillomavirus type 33) (UniProt P06416); assay: cryo-EM structure; purified VLPs at ~3 mg/mL vitrified on Quantifoil holey carbon grids; FEI TF30 at 300 kV; T = 7 particle images boxed manually; pentamers to VLP
[7] = target: HPV 58 L1 aa 10–498 (human papillomavirus type 58); assay: not stated; purified L1 under reducing conditions (Fig. S4); about ~8 nm in diameter; monomers to pentamer
[8] = target: HPV 58 L1 aa 10–498 (human papillomavirus type 58); assay: cryo-EM structure; purified VLPs at ~3 mg/mL vitrified on Quantifoil holey carbon grids; FEI TF30 at 300 kV; T = 7 particle images boxed manually; pentamers to VLP

HPV 52 L1 aa 15–503 (domain or fragment)
stoichiometry N [1]: 5 | stoichiometry N (pentamers per particle) [2]: 72

HPV 45 L1 aa 1–513 (natural protein)
stoichiometry N [3]: 5 | stoichiometry N (pentamers per particle) [4]: 72

HPV 33 L1 aa 10–499 (from UniProt P06416 10-499) (domain or fragment)
stoichiometry N [5]: 5 | stoichiometry N (pentamers per particle) [6]: 72

HPV 58 L1 aa 10–498 (domain or fragment)
stoichiometry N [7]: 5 | stoichiometry N (pentamers per particle) [8]: 72
